Among the data in publication PMC4153296, “Mutant Taq DNA polymerases with improved elongation ability as a useful reagent for genetic engineering” are Kd values, retold here.

The target in data set [1] is chimeric Taq 7-1 (Thermus aquaticus / environmental DNA chimera) (UniProt P19821). Briefly: EMSA. Conditions: EMSA: 3 nM DNA, 20 mM Tris-HCl pH 8.8, 10 mM NaCl, 5 mM MgCl2, 14 mM 2-mercaptoethanol, 0.1 mg/ml BSA, 5% glycerol, 40 C, 5 min; 1% agarose gel.
Data set [2] deals with chimeric Taq 4-2 (Thermus aquaticus / environmental DNA chimera) (UniProt P19821). Briefly: EMSA. The note with it: EMSA: 3 nM DNA, 20 mM Tris-HCl pH 8.8, 10 mM NaCl, 5 mM MgCl2, 14 mM 2-mercaptoethanol, 0.1 mg/ml BSA, 5% glycerol, 40 C, 5 min; 1% agarose gel.
Data set [3] deals with chimeric Taq 7-3 (Thermus aquaticus / environmental DNA chimera) (UniProt P19821). Briefly: EMSA. Conditions: EMSA: 3 nM DNA, 20 mM Tris-HCl pH 8.8, 10 mM NaCl, 5 mM MgCl2, 14 mM 2-mercaptoethanol, 0.1 mg/ml BSA, 5% glycerol, 40 C, 5 min; 1% agarose gel.
The target of data set [4] is chimeric Taq 10-1 (Thermus aquaticus / environmental DNA chimera) (UniProt P19821). Put plainly: EMSA. Conditions: EMSA: 3 nM DNA, 20 mM Tris-HCl pH 8.8, 10 mM NaCl, 5 mM MgCl2, 14 mM 2-mercaptoethanol, 0.1 mg/ml BSA, 5% glycerol, 40 C, 5 min; 1% agarose gel.
For data set [5], the target named is chimeric Taq 7-2 (Thermus aquaticus / environmental DNA chimera) (UniProt P19821). Put plainly: EMSA. The note with it: EMSA: 3 nM DNA, 20 mM Tris-HCl pH 8.8, 10 mM NaCl, 5 mM MgCl2, 14 mM 2-mercaptoethanol, 0.1 mg/ml BSA, 5% glycerol, 40 C, 5 min; 1% agarose gel.
The target of data set [6] is chimeric Taq 1-2 (Thermus aquaticus / environmental DNA chimera) (UniProt P19821). Put plainly: EMSA. Conditions: EMSA: 3 nM DNA, 20 mM Tris-HCl pH 8.8, 10 mM NaCl, 5 mM MgCl2, 14 mM 2-mercaptoethanol, 0.1 mg/ml BSA, 5% glycerol, 40 C, 5 min; 1% agarose gel.
The target in data set [7] is chimeric Taq 1-1 (Thermus aquaticus / environmental DNA chimera) (UniProt P19821). Put plainly: EMSA. Conditions: EMSA: 3 nM DNA, 20 mM Tris-HCl pH 8.8, 10 mM NaCl, 5 mM MgCl2, 14 mM 2-mercaptoethanol, 0.1 mg/ml BSA, 5% glycerol, 40 C, 5 min; 1% agarose gel.
The target in data set [8] is chimeric Taq 8-2 (Thermus aquaticus / environmental DNA chimera) (UniProt P19821). Put plainly: EMSA. Conditions: EMSA: 3 nM DNA, 20 mM Tris-HCl pH 8.8, 10 mM NaCl, 5 mM MgCl2, 14 mM 2-mercaptoethanol, 0.1 mg/ml BSA, 5% glycerol, 40 C, 5 min; 1% agarose gel.
Data set [9] concerns the target chimeric Taq 4-1 (Thermus aquaticus / environmental DNA chimera) (UniProt P19821). Put plainly: EMSA. Conditions: EMSA: 3 nM DNA, 20 mM Tris-HCl pH 8.8, 10 mM NaCl, 5 mM MgCl2, 14 mM 2-mercaptoethanol, 0.1 mg/ml BSA, 5% glycerol, 40 C, 5 min; 1% agarose gel.
Data set [10] deals with chimeric Taq 12-1 (Thermus aquaticus / environmental DNA chimera) (UniProt P19821). Put plainly: EMSA. Conditions: EMSA: 3 nM DNA, 20 mM Tris-HCl pH 8.8, 10 mM NaCl, 5 mM MgCl2, 14 mM 2-mercaptoethanol, 0.1 mg/ml BSA, 5% glycerol, 40 C, 5 min; 1% agarose gel.
Data set [11] has as its target chimeric Taq 30-1 (Thermus aquaticus / environmental DNA chimera) (UniProt P19821). Put plainly: EMSA. Conditions: EMSA: 3 nM DNA, 20 mM Tris-HCl pH 8.8, 10 mM NaCl, 5 mM MgCl2, 14 mM 2-mercaptoethanol, 0.1 mg/ml BSA, 5% glycerol, 40 C, 5 min; 1% agarose gel.
Data set [12] addresses chimeric Taq 8-1 (Thermus aquaticus / environmental DNA chimera) (UniProt P19821). Put plainly: EMSA. Conditions: EMSA: 3 nM DNA, 20 mM Tris-HCl pH 8.8, 10 mM NaCl, 5 mM MgCl2, 14 mM 2-mercaptoethanol, 0.1 mg/ml BSA, 5% glycerol, 40 C, 5 min; 1% agarose gel.
Data set [13] deals with chimeric Taq 29-1 (Thermus aquaticus / environmental DNA chimera) (UniProt P19821). Briefly: EMSA. Conditions: EMSA: 3 nM DNA, 20 mM Tris-HCl pH 8.8, 10 mM NaCl, 5 mM MgCl2, 14 mM 2-mercaptoethanol, 0.1 mg/ml BSA, 5% glycerol, 40 C, 5 min; 1% agarose gel.
Data set [14] concerns the target TaqAH (Thermus aquaticus, UniProt P19821 1-832, E742A;A743H). Briefly: EMSA; 5 mM Mg2+; apparent Kd; EMSA: 3 nM DNA, 20 mM Tris-HCl pH 8.8, 10 mM NaCl, 5 mM MgCl2, 14 mM 2-mercaptoethanol, 0.1 mg/ml BSA, 5% glycerol, 40 C, 5 min; 1% agarose gel. Conditions: protein: recombinant; label: 32P on 27mer; primer-template; 27 bp duplex, 5' overhang 22 nt on the 49mer template.

Data set [15] deals with TaqEH (Thermus aquaticus, UniProt P19821 1-832, A743H). The data set is described as above. Conditions: protein: recombinant; label: 32P on 27mer; primer-template; 27 bp duplex, 5' overhang 22 nt on the 49mer template.
Data set [16] has as its target TaqER (Thermus aquaticus, UniProt P19821 1-832, A743R). Described as above. The note with it: protein: recombinant; label: 32P on 27mer; primer-template; 27 bp duplex, 5' overhang 22 nt on the 49mer template.
The target in data set [17] is TaqQY (Thermus aquaticus, UniProt P19821 1-832, E742Q;A743Y). Described as above. Conditions: protein: recombinant; label: 32P on 27mer; primer-template; 27 bp duplex, 5' overhang 22 nt on the 49mer template.
Data set [18] has as its target TaqAR (Thermus aquaticus, UniProt P19821 1-832, E742A;A743R). Described as above. Conditions: protein: recombinant; label: 32P on 27mer; primer-template; 27 bp duplex, 5' overhang 22 nt on the 49mer template.
Data set [19] has as its target TaqKK (Thermus aquaticus, UniProt P19821 1-832, E742K;A743K). Described as above. The note with it: protein: recombinant; label: 32P on 27mer; primer-template; 27 bp duplex, 5' overhang 22 nt on the 49mer template.
Data set [20] has as its target TaqRR (Thermus aquaticus, UniProt P19821 1-832, E742R;A743R). Described as above. The note with it: protein: recombinant; label: 32P on 27mer; primer-template; 27 bp duplex, 5' overhang 22 nt on the 49mer template.
The target in data set [21] is TaqKR (Thermus aquaticus, UniProt P19821 1-832, E742K;A743R). The data set is described as above. The note with it: protein: recombinant; label: 32P on 27mer; primer-template; 27 bp duplex, 5' overhang 22 nt on the 49mer template.
The target of data set [22] is TaqHH (Thermus aquaticus, UniProt P19821 1-832, E742H;A743H). The data set is described as above. The note with it: protein: recombinant; label: 32P on 27mer; primer-template; 27 bp duplex, 5' overhang 22 nt on the 49mer template.
Data set [23] addresses TaqAA (Thermus aquaticus, UniProt P19821 1-832, E742A). The description is as above. Conditions: protein: recombinant; label: 32P on 27mer; primer-template; 27 bp duplex, 5' overhang 22 nt on the 49mer template.
Data set [24] concerns the target TaqHA (Thermus aquaticus, UniProt P19821 1-832, E742H). Described as above. The note with it: protein: recombinant; label: 32P on 27mer; primer-template; 27 bp duplex, 5' overhang 22 nt on the 49mer template.
The target in data set [25] is TaqRA (Thermus aquaticus, UniProt P19821 1-832, E742R). Described as above. Conditions: protein: recombinant; label: 32P on 27mer; primer-template; 27 bp duplex, 5' overhang 22 nt on the 49mer template.
Data set [26] concerns the target Taq DNA polymerase WT (TaqEA) (Thermus aquaticus, UniProt P19821 1-832). The data set is described as above. The note with it: protein: recombinant; label: 32P on 27mer; primer-template; 27 bp duplex, 5' overhang 22 nt on the 49mer template.
In data set [27] the target is TaqRK (Thermus aquaticus, UniProt P19821 1-832, E742R;A743K). Described as above. Conditions: protein: recombinant; label: 32P on 27mer; primer-template; 27 bp duplex, 5' overhang 22 nt on the 49mer template.
In data set [28] the target is TaqHK (Thermus aquaticus, UniProt P19821 1-832, E742H;A743K). Described as above. The note with it: protein: recombinant; label: 32P on 27mer; primer-template; 27 bp duplex, 5' overhang 22 nt on the 49mer template.
Sequence of TaqHK (P19821 whole entry E742H/A743K): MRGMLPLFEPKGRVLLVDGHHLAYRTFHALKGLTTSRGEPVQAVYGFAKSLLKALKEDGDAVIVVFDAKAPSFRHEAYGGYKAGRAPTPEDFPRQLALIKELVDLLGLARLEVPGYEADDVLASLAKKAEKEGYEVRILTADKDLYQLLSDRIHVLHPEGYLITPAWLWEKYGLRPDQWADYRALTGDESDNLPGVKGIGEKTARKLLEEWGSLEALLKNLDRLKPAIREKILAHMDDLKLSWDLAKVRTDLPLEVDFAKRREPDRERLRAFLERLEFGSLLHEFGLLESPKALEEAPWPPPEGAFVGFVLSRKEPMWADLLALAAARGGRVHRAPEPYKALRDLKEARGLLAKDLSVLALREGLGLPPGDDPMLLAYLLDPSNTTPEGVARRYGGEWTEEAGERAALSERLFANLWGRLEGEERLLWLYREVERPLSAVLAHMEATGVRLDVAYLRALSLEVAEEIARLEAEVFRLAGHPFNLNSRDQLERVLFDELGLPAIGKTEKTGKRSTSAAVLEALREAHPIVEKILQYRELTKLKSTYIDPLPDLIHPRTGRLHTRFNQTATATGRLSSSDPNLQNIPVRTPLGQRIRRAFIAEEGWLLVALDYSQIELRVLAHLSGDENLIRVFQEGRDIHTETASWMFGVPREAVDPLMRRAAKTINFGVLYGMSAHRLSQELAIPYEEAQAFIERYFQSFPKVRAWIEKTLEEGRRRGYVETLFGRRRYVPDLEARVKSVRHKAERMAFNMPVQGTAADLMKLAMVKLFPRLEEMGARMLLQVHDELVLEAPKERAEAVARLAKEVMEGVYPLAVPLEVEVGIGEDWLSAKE

Sequence of TaqAA (P19821 whole entry E742A): as the sequence (P19821 whole entry E742H/A743K) above, with H742A, K743A counted along it
Sequence of TaqRA (P19821 whole entry E742R): as the sequence (P19821 whole entry E742H/A743K) above, with H742R, K743A counted along it
Sequence of TaqQY (P19821 whole entry E742Q/A743Y): as the sequence (P19821 whole entry E742H/A743K) above, with H742Q, K743Y counted along it
Sequence of TaqAR (P19821 whole entry E742A/A743R): as the sequence (P19821 whole entry E742H/A743K) above, with H742A, K743R counted along it
Sequence of TaqAH (P19821 whole entry E742A/A743H): as the sequence (P19821 whole entry E742H/A743K) above, with H742A, K743H counted along it
Sequence of TaqRR (P19821 whole entry E742R/A743R): as the sequence (P19821 whole entry E742H/A743K) above, with H742R, K743R counted along it
Sequence of TaqER (P19821 whole entry A743R): as the sequence (P19821 whole entry E742H/A743K) above, with H742E, K743R counted along it
Sequence of TaqHA (P19821 whole entry E742H): as the sequence (P19821 whole entry E742H/A743K) above, with K743A counted along it
Sequence of TaqHH (P19821 whole entry E742H/A743H): as the sequence (P19821 whole entry E742H/A743K) above, with K743H counted along it
Sequence of TaqEH (P19821 whole entry A743H): as the sequence (P19821 whole entry E742H/A743K) above, with H742E, K743H counted along it
Sequence of TaqKK (P19821 whole entry E742K/A743K): as the sequence (P19821 whole entry E742H/A743K) above, with H742K counted along it
Sequence of TaqRK (P19821 whole entry E742R/A743K): as the sequence (P19821 whole entry E742H/A743K) above, with H742R counted along it
Sequence of chimeric Taq 1-1 (Thermus aquaticus / environmental DNA chimera) (P19821 whole entry, change not shown): as the sequence (P19821 whole entry E742H/A743K) above, with H742E, K743A counted along it
Sequence of Taq DNA polymerase WT (TaqEA) (P19821 whole entry): as the sequence (P19821 whole entry E742H/A743K) above, with H742E, K743A counted along it
Sequence of chimeric Taq 12-1 (Thermus aquaticus / environmental DNA chimera) (P19821 whole entry, change not shown): as the sequence (P19821 whole entry E742H/A743K) above, with H742E, K743A counted along it
Sequence of chimeric Taq 8-2 (Thermus aquaticus / environmental DNA chimera) (P19821 whole entry, change not shown): as the sequence (P19821 whole entry E742H/A743K) above, with H742E, K743A counted along it
Sequence of chimeric Taq 7-1 (Thermus aquaticus / environmental DNA chimera) (P19821 whole entry, change not shown): as the sequence (P19821 whole entry E742H/A743K) above, with H742E, K743A counted along it
Sequence of chimeric Taq 8-1 (Thermus aquaticus / environmental DNA chimera) (P19821 whole entry, change not shown): as the sequence (P19821 whole entry E742H/A743K) above, with H742E, K743A counted along it
Sequence of chimeric Taq 30-1 (Thermus aquaticus / environmental DNA chimera) (P19821 whole entry, change not shown): as the sequence (P19821 whole entry E742H/A743K) above, with H742E, K743A counted along it
Sequence of chimeric Taq 7-2 (Thermus aquaticus / environmental DNA chimera) (P19821 whole entry, change not shown): as the sequence (P19821 whole entry E742H/A743K) above, with H742E, K743A counted along it
Sequence of chimeric Taq 1-2 (Thermus aquaticus / environmental DNA chimera) (P19821 whole entry, change not shown): as the sequence (P19821 whole entry E742H/A743K) above, with H742E, K743A counted along it
Sequence of chimeric Taq 4-1 (Thermus aquaticus / environmental DNA chimera) (P19821 whole entry, change not shown): as the sequence (P19821 whole entry E742H/A743K) above, with H742E, K743A counted along it
Sequence of chimeric Taq 29-1 (Thermus aquaticus / environmental DNA chimera) (P19821 whole entry, stated change not applied): as the sequence (P19821 whole entry E742H/A743K) above, with H742E, K743A counted along it
Sequence of chimeric Taq 7-3 (Thermus aquaticus / environmental DNA chimera) (P19821 whole entry, change not shown): as the sequence (P19821 whole entry E742H/A743K) above, with H742E, K743A counted along it
Sequence of chimeric Taq 10-1 (Thermus aquaticus / environmental DNA chimera) (P19821 whole entry, change not shown): as the sequence (P19821 whole entry E742H/A743K) above, with H742E, K743A counted along it
Sequence of chimeric Taq 4-2 (Thermus aquaticus / environmental DNA chimera) (P19821 whole entry, change not shown): as the sequence (P19821 whole entry E742H/A743K) above, with H742E, K743A counted along it
Sequence of TaqKR (P19821 whole entry E742K/A743R): as the sequence (P19821 whole entry E742H/A743K) above, with H742K, K743R counted along it

For “AGCTATGACCATGATTACGAATTGCTT / AGCTACCATGCCTGCACGAATTAAGCAATTCGTAATCATGGTCATAGCT [primed DNA (27mer/49mer)]”, the Kd in data set [1] is 10 nM; in [2] it was 4 nM; in [3], 4 nM; in data set [4], 4 nM; in data set [5] it was 5 nM; in data set [6], 5 nM. Moreover, the Kd was 6 nM in data set [7]; 20 nM in data set [8]; 4 nM in [9]; 7 nM in data set [10]; 8 nM in data set [11]; 10 nM in data set [12]. This molecule also yielded a Kd in [13] of 10 nM.

B1: primed DNA (27mer/49mer) (dsDNA)
DNA 1: AGCTATGACCATGATTACGAATTGCTT
DNA 2: AGCTACCATGCCTGCACGAATTAAGCAATTCGTAATCATGGTCATAGCT
Consider B1, for which the Kd in [14] came to 6 nM; in data set [15], 6 nM; in [16], 8 nM; in data set [17], 10 nM; in data set [18], 8 nM; in data set [19], 10 nM. In addition, the Kd in [20] is 9 nM; in [21] it was 10 nM; in data set [22], 6 nM; in data set [23], 9 nM; in data set [24], 6 nM; in data set [25] it was 8 nM. The Kd was found to be 400 nM in [26], 10 nM in data set [27] and 6 nM in data set [28].
